This is an account of results in US20260209334A1 (MAX PLANCK GESELLSCHAFT ZUR F RDERUNG DER WISSENSCHAFTEN E V, published 2026).

The target of assay [1] is T1, human IL-17A with C-terminal Avi-tag, biotinylated, immobilized on BLI sensors (human, UniProt Q16552 24-155, biotin on the C-terminal Avi-tag (BirA)).
T1 construct: also called biotinylated IL-17A; not shown: C-terminal Avi-tag
As to the kind of experiment: BLI, biotinylated IL-17A immobilized, monovalent VHH as analyte. A general note: In BLI a coated tip is dipped into the sample, and binding shifts an interference pattern.

Assay [2] deals with recombinant human IL-17A (produced in HEK cells, Proteintech HZ-1113) (human, UniProt Q16552 24-155). Kind of assay: cell-based or functional assay.
Sequence of recombinant human IL-17A (produced in HEK cells, Proteintech HZ-1113) (Q16552 24-155 limits assumed): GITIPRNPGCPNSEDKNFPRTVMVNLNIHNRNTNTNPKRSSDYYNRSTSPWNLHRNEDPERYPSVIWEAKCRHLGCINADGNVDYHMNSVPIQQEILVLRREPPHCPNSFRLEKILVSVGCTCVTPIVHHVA
Assay [3] has as its target T2, recombinant human IL-17F (produced in HEK cells, Proteintech HZ-1116) (human, UniProt Q96PD4 31-163).
T2 sequence (looked up): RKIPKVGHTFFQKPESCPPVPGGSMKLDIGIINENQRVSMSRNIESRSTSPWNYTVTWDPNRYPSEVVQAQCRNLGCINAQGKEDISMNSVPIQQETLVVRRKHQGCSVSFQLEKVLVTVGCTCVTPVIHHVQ
As to the kind of experiment: cell-based or functional assay.

Assay [4] has as its target recombinant human IL-17A/F (produced in CHO cells, R&D Systems 5837-IL) (human, UniProt Q16552 24-155; Q96PD4 31-163, limits assumed). As to the kind of experiment: cell-based or functional assay.
Assay [5] deals with T3, human IL-17F with C-terminal Avi-tag, biotinylated, immobilized on BLI sensors (human, UniProt Q96PD4 31-163, biotin on the C-terminal Avi-tag (BirA)).
T3 construct: also called biotinylated IL-17F; not shown: C-terminal Avi-tag
T3 sequence: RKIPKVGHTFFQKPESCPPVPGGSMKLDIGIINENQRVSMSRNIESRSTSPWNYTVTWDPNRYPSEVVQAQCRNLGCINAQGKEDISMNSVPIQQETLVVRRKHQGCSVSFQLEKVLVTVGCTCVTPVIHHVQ
As to the kind of experiment: BLI, biotinylated IL-17F immobilized, monovalent VHH as analyte.

Assay [6] addresses T1, human IL-17A with C-terminal Avi-tag, …. As to the kind of experiment: BLI, biotinylated IL-17A immobilized on streptavidin sensors, monovalent VHH as analyte (25, 50, 100 nM), mass transport fit.
The target in assay [7] is T4, human IL-17A homodimer, bacterially expressed construct (residues 40-155 with GSEDS spacer) (human, UniProt Q16552 40-155).
T4 chain: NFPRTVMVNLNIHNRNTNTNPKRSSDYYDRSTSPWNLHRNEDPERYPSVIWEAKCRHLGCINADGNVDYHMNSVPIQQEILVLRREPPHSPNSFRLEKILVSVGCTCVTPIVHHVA
Kind of assay: BLI, biotinylated VHH immobilized on streptavidin sensors, IL-17 as analyte (10, 20, 40 nM), mass transport fit; apparent value, avidity possible.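 Further: wavelength shift (nm) signal, 800 s association then 800 s dissociation, reference from parallel sensors without VHH, avidity from immobilized VHH may lower apparent off-rates.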

Assay [8] addresses T5, human IL-17A/F heterodimer, bacterially expressed construct (human, UniProt Q16552 40-155; Q96PD4 39-163, limits assumed).
T5 construct: IL-17A unit with N68D, IL-17F unit with N83D and C137S, both with GSEDS spacer; already in the entries
The assay is described as above.

The target of assay [9] is T6, human IL-17F homodimer, bacterially expressed construct (residues 39-163 with GSEGE linker) (human, UniProt Q96PD4 39-163).
T6 construct: also called IL-17F dimer
T6 chain: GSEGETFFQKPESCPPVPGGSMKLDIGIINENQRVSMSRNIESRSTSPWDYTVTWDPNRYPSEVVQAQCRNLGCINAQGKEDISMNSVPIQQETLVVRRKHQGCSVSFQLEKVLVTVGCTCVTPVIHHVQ
The description is as above.

Assay [10] concerns the target T3, human IL-17F with C-terminal Avi-tag, …. As to the kind of experiment: BLI, biotinylated IL-17F immobilized, monovalent VHH as analyte; 2:1 heterogenous model, high affinity component.
Assay [11] addresses T1, human IL-17A with C-terminal Avi-tag, …. As to the kind of experiment: BLI, biotinylated IL-17A immobilized, monovalent VHH as analyte; 2:1 heterogenous model, high affinity component.

Sequence of recombinant human IL-17A/F (produced in CHO cells, R&D Systems 5837-IL) (Q16552 24-155 limits assumed, chain 1 of 2, one chain of several): as the sequence (Q16552 24-155 limits assumed) above

B1: Bm43B02 (VHH)
VHH: QVQLVESGGGLVQAGGSLNLSCVISRRTPSGYAMGWFRQASGKEREFVAAISWIGGGAVYADSVKGRFTMSRDNAKNTVYLQMNSLKPEDTAVYYCNDMPYGLDTTMDDYDYWGQGTLVTVSS
notes: Class A, second generation
As to B1, the Kd in [1] came to 0.13 nM; in assay [5] it was 0.075 nM. Further, the “Neutralization potency, ranking from 1 = the best to 4 (HEK-Blue IL-17 reporter cells)” value (shortened to “Neutralization potency, ranking”) in [2], in assay [3] and in [4] was 2 rank in each case.

B2: Bm44B11 (VHH)
VHH: QVQLVESGGGLVQAGGSLNLSCVISRRTPSGYAMGWFRQASGKEREFVAAISWIGGGAVYADSVKGRFTMSRDNAKNTVYLQMNSLKPEDTAVYYCNDMPYGLDTTMDDYDYWGQGTQVTVSS
notes: Class A, second generation
Consider B2, for which the results for the Kd in assay [1] and in assay [5] were 0.15 nM and 0.09 nM, respectively. The “Neutralization potency, ranking” value in assay [2] turned out to be 3 rank; in assay [3] it was 1 rank; in assay [4], 1 rank.

B3: VHH662 (VHH)
VHH: EVQLVESGGGSVQAGDSLRLSCAASGRANSINWFGWFRQTPGKEREFVAGIRWSDAYTEYANSVKGRFTISRDNAKNTVDLQMDSLKPEDTAVYYCVLDLSTVRYWGQGTQVTVSS
notes: Control VHH of Ablynx, disclosed in WO2012156219
For B3, the Kd was found to be 0.115 nM in [1] and 16 nM in assay [5]. Further, the “Neutralization potency, ranking” value in [2] was determined as 2 rank; in assay [3] it was 4 rank; in assay [4], 1 rank.

B4: Bm45G07 (VHH)
VHH: QVQLVESGGGFVQAGGSLKLSCSVSGNTFITNHMGWFRQPPGKGREFVAGIRWSDGSTFYGDSVRGRFTISGDNAKHTLYLQMNSLKPDDTAVYYCYIDSGSDRYYGQGTLVTVSS
notes: Class D, second generation
With B4, the Kd in assay [1] was 0.06 nM; in assay [5], 4 nM. Further, the “Neutralization potency, ranking” value was determined as 1 rank in assay [2], 2 rank in assay [3] and 1 rank in [4].

B5: Bm42B11 (VHH)
VHH: QVQLVESGGDLVQAGGSLRLSCSVSGLRVSSYAMGWFRQAPGKEREFVAAISWVGGDTRYADSVKGRFTMSRDNAKKQVYLEMNSLKPEDTAVYYCNDMPYGMETRMDDYASWGQGTQVTVSS
notes: Class A, second generation
As for B5, the Kd is at most 0.01 nM in assay [1] and 2 nM in assay [5]. Further, the “Neutralization potency, ranking” value in [2] worked out at 1 rank; in [3], 2 rank; in assay [4], 1 rank.

B6: Re42B04a (VHH)
VHH: QVQLVESGGGLVQVGGSLRLSCEVSGLPVSSYAMGWFRQAPEKEREFVAAISWIGGDSRYAHFVKGRFTISRDNAKNTVHLQMDSLKPEDTAVYYCNDMPYGLDTRMDEYEYWGQGTQVTVSS
notes: Class A; Monovalent VHH
In the case of B6, the figures for the Kd in [6], in [1] and in assay [5] were at most 0.01 nM, 0.05 nM and 0.5 nM, respectively. Besides, the “Neutralization potency, ranking” value stood at 1 rank in assay [2], 2 rank in [3] and 1 rank in [4].

B7: Re42H11 (VHH)
VHH: QVQLVESGGGLVQAGGSLRLSCAASGLTASSYAMGWFRQAPGKEREFVAAISWISGGTKYADSVKGRFTMSRDNAKKQVYLEMNSLKPEDTAVYYCNDMPYGLDTRMDEYAYWGQGTQVTVSS
notes: Class A, first generation; For the crystal it was made with a His14-ScSUMO tag that was cleaved off
On to B7, for which the Kd in assay [6] stood at 1 nM.

B8: Re42B03 with C-terminal Avi-Biotin-tag, biotinylated (VHH)
VHH: QVQLVESGGGLVQAGGSLRLSCAASGLTGSSYAMGWFRQAPGKEREFVAAISWISGGTKYTDSVKDRFTMSRDYAKKQVYLEMNSLKPEDTAVYYCNDMPYGLDTRMDEYVYWGQGTQVTVSS
modifications: biotin on the C-terminal Avi-tag (BirA)
notes: not shown: C-terminal Avi-Biotin-tag
For the molecule B8, in assay [7], the Kd was at most 0.01 nM, the dissociation rate constant (koff) (commonly a measure of how fast the partners let go of each other) is at most 1e-07 s⁻¹ and the kon (commonly a measure of how fast the partners come together) is 120000 M⁻¹ s⁻¹. Besides, in assay [8], the Kd was at most 0.01 nM, the off-rate (koff) was at most 1e-07 s⁻¹ and the kon stood at 340000 M⁻¹ s⁻¹. Moreover, in assay [9], the Kd is at most 0.01 nM, the koff is at most 1e-07 s⁻¹ and the kon amounted to 260000 M⁻¹ s⁻¹.

B9: Re42B03 (VHH)
VHH: QVQLVESGGGLVQAGGSLRLSCAASGLTGSSYAMGWFRQAPGKEREFVAAISWISGGTKYTDSVKDRFTMSRDYAKKQVYLEMNSLKPEDTAVYYCNDMPYGLDTRMDEYVYWGQGTQVTVSS
notes: Class A, first generation
Regarding B9, the Kd in assay [6] was found to be 0.7 nM.

B10: Re42H11 with C-terminal Avi-Biotin-tag, biotinylated (VHH)
VHH: QVQLVESGGGLVQAGGSLRLSCAASGLTASSYAMGWFRQAPGKEREFVAAISWISGGTKYADSVKGRFTMSRDNAKKQVYLEMNSLKPEDTAVYYCNDMPYGLDTRMDEYAYWGQGTQVTVSS
modifications: biotin on the C-terminal Avi-tag (BirA)
notes: as for B8
For the molecule B10, the Kd in assay [7], in [8] and in assay [9] was at most 0.01 nM each time. Also, the koff in assay [7], in assay [8] and in assay [9] was at most 1e-07 s⁻¹ throughout. The kon in assay [7] is 120000 M⁻¹ s⁻¹; in assay [8], 360000 M⁻¹ s⁻¹; in [9] it was 270000 M⁻¹ s⁻¹.

B11: Bm18B05 (VHH)
VHH: QVQLVESGGGLVQPGGSLRLSCAVSGRTFSSYAMGWFRRPPGKEREFVAAISWSGGDTKYADFVTDRFTISRDDAKSTVYLQMNSLKPEDTAVYYCNDMPYGLDTRMDEYEYWGQGTQVTVSS
notes: Class A, first generation
For the molecule B11, the Kd in assay [6] was determined as 2 nM.

B12: Bm42A03 (VHH)
VHH: QVQLVESGGGLVQPGGSLRLSCVASGFTFSSFAMSWYRQDPGKERKLVAAITNDGGTTFYSDLVKGRFTISRDNTKNTVYLQMNNVKPDDAAVYYCMAVRGLYGSNWYDYPFELWGQGTQVTVSS
notes: Class C, second generation
For B12, the figures for the Kd in assay [10] and in assay [11] were 0.35 nM and 0.15 nM, respectively. Further, the “Neutralization potency, ranking” value in [2], in [3] and in [4] was 1 rank each time.

B13: Bm44G10 (VHH)
VHH: QVQLVESGGGLVQPGGSLRLSCVASGFTFSSFAMSWYRQDPGRERKLVAAITNDGGTTFYSDLVKGRFTISRDNTKNTVYLQMNNVKPDDAAVYYCMAVRGLYGSNWYDYPFELWGQGTQVTVSS
notes: Class C, second generation
Regarding B13, the Kd in [10] came out at 0.35 nM; in assay [11], 0.2 nM. The “Neutralization potency, ranking” value was 1 rank in [2], 3 rank in assay [3] and 1 rank in assay [4].
